Here are results for 19 substances from paper PMC12724217.

Experiment [1] has as its target human chromosomal region maintenance 1 (CRM1) (UniProt O14980). The experiment in a line: two-hybrid.
For experiment [2] the target is unchanged. The experiment in a line: mammalian two-hybrid (CheckMate system) luciferase assay. As to conditions: HEK-293 cells, 100 ng pG5luc reporter plasmid, 96 hours transfection, read off a plot; for percent of parent: parent: est. 100.

DHOV M I121A (natural protein): in experiment [1], the reduction of the firefly luciferase signal relative to WT M is > 10%.

For DHOV M I121S (natural protein), the reduction of the firefly luciferase signal relative to WT M in experiment [1] was > 10%. For the substance DHOV M L122A (natural protein), the firefly luciferase signal as percent of WT M in experiment [1] was < 70 % of WT M. Still for that read-out and setting: the value for DHOV M L122S (natural protein) was < 70 % of WT M. As to “Dhori virus (DHOV) matrix protein (M) I121A; L122A”, the response (fold induction) in experiment [2] (parent: est. 5.2) turned out to be 4.5. Also, in experiment [2], the percent of parent is 86 % of WT M.

As to “Dhori virus (DHOV) matrix protein (M) I121S; L122S”, the response (fold induction) in experiment [2] (parent: est. 5.2) stood at 4.7. Also, in experiment [2], the percent of parent was 90 % of WT M.

Consider “Dhori virus (DHOV) matrix protein (M) I127A”, for which, in experiment [2] (parent: est. 5.7), the response (fold induction) is 11. For the substance “Dhori virus (DHOV) matrix protein (M) I127S”, the response (fold induction) in experiment [2] (parent: est. 5.7) was determined as 14.

Consider “Dhori virus (DHOV) matrix protein (M) L116A”, for which, in experiment [2] (parent: est. 5.7), the response (fold induction) stood at 4.2. In experiment [2], the percent of parent is 74 % of WT M. For “Dhori virus (DHOV) matrix protein (M) L116S”, in experiment [2] (parent: est. 5.7), the response (fold induction) was 5.3. The percent of parent in experiment [2] is 92 % of WT M. For the substance “Dhori virus (DHOV) matrix protein (M) L120A”, the response (fold induction) in experiment [2] (parent: est. 5.7) was 7.6. In experiment [2], the percent of parent was 130 % of WT M. For “Dhori virus (DHOV) matrix protein (M) L120S”, in experiment [2] (parent: est. 5.7), the response (fold induction) came to 7.7. For the same substance, in experiment [2], the percent of parent was 140 % of WT M. Taken in the same sequence, the figures for “Dhori virus (DHOV) matrix protein (M) M119A” were 5.8 and 100 % of WT M.

“Dhori virus (DHOV) matrix protein (M) M119S”: the response (fold induction) in experiment [2] (parent: est. 5.7) was 7.3. In experiment [2], the percent of parent is 130 % of WT M. Take “Dhori virus (DHOV) matrix protein (M) V115A”: the response (fold induction) in experiment [2] (parent: est. 5.7) was 6. For the same substance, in experiment [2], the percent of parent is 110 % of WT M. Turning to “Dhori virus (DHOV) matrix protein (M) V115A; L116A; M119A; L120A; I121A; L122A; I127A”, in experiment [2] (parent: est. 5.2), the response (fold induction) amounted to 1.4. The percent of parent in experiment [2] is 27 % of WT M. For “Dhori virus (DHOV) matrix protein (M) V115G; L116G; M119G; L120G; I121G; L122G; I127G”, in experiment [2] (parent: est. 5.2), the response (fold induction) is 1.4. Moreover, the percent of parent in experiment [2] is 27 % of WT M.

As to “Dhori virus (DHOV) matrix protein (M) V115R; L116R; M119R; L120R; I121R; L122R; I127R”, the response (fold induction) in experiment [2] (parent: est. 5.2) amounted to 1.4. In addition, in experiment [2], the percent of parent was 27 % of WT M. As to “Dhori virus (DHOV) matrix protein (M) V115S”, in experiment [2] (parent: est. 5.7), the response (fold induction) turned out to be 6.2. Besides, the percent of parent in experiment [2] was 110 % of WT M.
